Experimental data: US20160207996A1 (ARGEN X N V, published 2016)

T1: hNav1.7-loopB1-C1-D1-llama Fc (human)
T1 construct: whole entry: loops B1, C1, D1 joined by linkers, llama Fc; also called hNav1.7-loopB1-C1-D1-llfc
T1 chain: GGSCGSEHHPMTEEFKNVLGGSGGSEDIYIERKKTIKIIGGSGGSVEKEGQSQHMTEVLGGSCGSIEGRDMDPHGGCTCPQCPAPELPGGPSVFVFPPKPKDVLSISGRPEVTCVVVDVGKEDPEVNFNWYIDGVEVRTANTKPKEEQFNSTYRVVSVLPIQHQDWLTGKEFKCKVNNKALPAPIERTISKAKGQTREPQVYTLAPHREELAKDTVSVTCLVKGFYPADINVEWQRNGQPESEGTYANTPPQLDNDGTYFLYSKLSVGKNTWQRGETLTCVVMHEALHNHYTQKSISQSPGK

T2: hNav1.7-loopA3-llama Fc fusion (human)
T2 construct: also called hNav1.7-loopA3-llFc; loopA3-llamaFc chimera
T2 chain: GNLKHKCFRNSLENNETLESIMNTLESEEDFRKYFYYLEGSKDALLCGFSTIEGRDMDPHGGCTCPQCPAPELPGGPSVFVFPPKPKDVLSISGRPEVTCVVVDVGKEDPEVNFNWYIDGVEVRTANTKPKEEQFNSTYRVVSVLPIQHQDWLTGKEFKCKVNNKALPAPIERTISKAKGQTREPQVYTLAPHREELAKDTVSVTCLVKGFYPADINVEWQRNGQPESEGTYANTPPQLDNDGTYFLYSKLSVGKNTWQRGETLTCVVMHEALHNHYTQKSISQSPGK

T3: RatB1-C1-D1-llFc (rat)
T3 construct: also called rat Nav1.7 loopB1-C1-D1 llamaFc chimera
T3 chain: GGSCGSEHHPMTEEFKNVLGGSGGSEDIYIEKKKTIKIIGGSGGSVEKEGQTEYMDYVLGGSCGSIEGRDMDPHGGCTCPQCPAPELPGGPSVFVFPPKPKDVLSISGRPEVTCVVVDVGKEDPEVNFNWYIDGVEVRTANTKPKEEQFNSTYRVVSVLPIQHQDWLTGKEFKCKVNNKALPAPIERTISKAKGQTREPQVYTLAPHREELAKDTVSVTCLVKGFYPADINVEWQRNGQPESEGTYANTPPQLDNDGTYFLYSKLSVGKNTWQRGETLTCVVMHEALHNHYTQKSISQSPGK

T4: hNav1.5-B1-C1-D1-llFc (human)
T4 construct: also called Nav1.5 extracellular loop B1-C1-D1 llamaFc chimera
T4 chain: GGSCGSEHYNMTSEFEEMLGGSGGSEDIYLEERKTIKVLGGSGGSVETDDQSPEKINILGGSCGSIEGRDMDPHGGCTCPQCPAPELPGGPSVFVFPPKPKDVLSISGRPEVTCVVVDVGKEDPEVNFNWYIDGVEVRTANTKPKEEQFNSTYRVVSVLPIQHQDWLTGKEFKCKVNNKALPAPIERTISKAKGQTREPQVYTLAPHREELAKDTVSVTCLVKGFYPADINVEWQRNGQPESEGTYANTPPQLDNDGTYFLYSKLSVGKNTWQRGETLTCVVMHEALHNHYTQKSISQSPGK


What was measured:
[1] = target: human Nav1.7 (full length) (human) (UniProt Q15858); experiment: cell-based or functional assay
[2] = target: T1, hNav1.7-loopB1-C1-D1-llama Fc; experiment: ELISA, coated loop-B1-C1-D1-llama Fc 20 ng/well, mAb titrated
Protocol: mAbs originating from the loopA3-llama Fc immunization were assayed for their affinity for hNav1.7-loopA3. Therefore, a Maxisorp plate was coated with 10 ng/well of loopA3-llamaFc chimera and incubated overnight at 4° C. The next day, the plate was blocked with PBS+1% casein for 2 hours at RT. Subsequently a concentration gradient of antibodies was applied (range 0.25 pM-66 nM) for another hour. Antibody binding to loopA3 was detected using a HRP-conjugated anti-human Fc antibody (Abcam, Ab7499) (incubation 1 hour at RT, dilution 1/5000 in PBS+0.1% casein), followed by TMB addition and OD620 nm measurement. EC50 values were determined using GraphPad Prism software. For comparison purposes a known hNav1.7-loopA3 binding monoclonal antibody, UCB_932 (US2011/0135662), was tested.
In a next experiment, the binding affinity of the loop-specific mAbs was determined and compared to reference mAbs as described in US2011/0135662 (for loop A3: UCB_932, for loopB1-C1-D1: UCB_983, for loopC3: UCB_1066; US2011/0135662). Affinities were determined using an ELISA with a loop-coating of 10 ng/well (loopA3-llama Fc), 20 ng/well (loop-B1-C1-D1-llama Fc) or 50 ng/well (loopC3-llama Fc). The remainder of the experimental setup was identical to abovementioned binding ELISAs. Most of the mAbs show pM affinity for the respective hNav1.7 extracellular loop they are binding. […] The EC₅₀ for the reference mAbs could not be determined (nd) from the ELISA data available because the binding was too weak.

[3] = target: T2, hNav1.7-loopA3-llama Fc fusion; experiment: binding ELISA on coated loop-llama Fc chimera (20 ng/well), OD620
Protocol: (§1) For all DNA-immunization derived mAbs the binding affinity for the various hNav1.7-loop-llama Fc chimeras was tested in a binding ELISA. Therefore, a Maxisorp plate (Nunc) was coated with 20 ng/well of hNav1.7-loopA3-llama Fc, hNav1.7-loopB1-C1-D1-llama Fc or hNav1.7-loopC3-llama Fc. Remainder of the ELISA setup is as described above. […] Only at very high concentration minor cross-reactivity is observed for some clones.

[4] = target: T3, RatB1-C1-D1-llFc; experiment: binding ELISA; the panel prints no target, by paragraph 562 the coated rat loop B1-C1-D1-llama Fc
[5] = target: T4, hNav1.5-B1-C1-D1-llFc; experiment: binding ELISA; the panel prints no target, by paragraph 288 and paragraph 555 the coated hNav1.5 loop B1-C1-D1-llama Fc
From the text: The therapeutic potency of an anti-hNav1.7 antibody will highly depend on the lack of binding to other Nay family members. Of particular interest is hNav1.5, which is expressed on cardiac muscle cells. As such, cross-reactive binding of hNav1.7 antibodies to hNav1.5 could lead to heart failure. To assay the specificity of the mAbs derived from DNA immunization for hNav1.7, the corresponding loopA3 and loopB1-C1-D1 sequences of hNav1.5 were cloned as llamaFc chimera and cross-reactivity was determined using a binding ELISA (FIG. 8). All clones, except clone 9A6 and 9H4, show no cross-reactivity to hNav1.5. In addition, cross reactivity for hNav1.2 was tested for the loopA3-binding clones 8A7 and 8B6 using hNav1.2 and hNav1.7 derived monomeric, GST-tagged loopA3 peptides (Abnova, H00006326-Q01 (hNav1.2) and H00006335-Q01 (hNav1.7)). Again, no cross-reactive binding was observed.

[6] = target: T1, hNav1.7-loopB1-C1-D1-llama Fc; experiment: binding ELISA on coated loop-llama Fc chimera (20 ng/well), OD620
Protocol: as §1

[7] = target: Nt-GCGR-hFc (human) (UniProt P47871); experiment: scFv binding ELISA, periplasmic extract on coated Nt-GCGR
Sequence of Nt-GCGR-hFc (human) (P47871 26-136): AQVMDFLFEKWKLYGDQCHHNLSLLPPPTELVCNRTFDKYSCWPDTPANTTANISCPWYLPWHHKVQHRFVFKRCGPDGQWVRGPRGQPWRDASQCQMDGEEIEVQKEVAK

| Binder | % inhibition of inward current following P02 voltage protocol, 10 µg/ml [1] [%] | % inhibition of inward current following P02 voltage protocol, 25 µg/ml [1] [%] | % inhibition of inward current following P02 voltage protocol, 100 µg/ml [1] [%] | EC50 [2] [nM] | binding result [3] | binding result [4] | binding result [5] | binding result [6] | ScFv binding ELISA signal [7] |
| --- | --- | --- | --- | --- | --- | --- | --- | --- | --- |
| 9A1 (antibody, V domains shown, chimeric llama-human, human IgG1 constant domains) VH: EVQLVQPGAELRNPGASVKVSCKASGDTFTDYYIHWVRQAPGQGLEWMGRIDPEDGGTKYTQKFQGRVTFTADTSTSTVYLELDSLRSEDTAVYYCVGDMDYWGKGTLVTVSS VL: QTVVTQEPSLSVSPGGTVTLTCGLSSGSVTFGNYPSWYQQTPGQAPRTLIYTTNSRHSGVPSRFSGSISGNKATLTISGAQPEDEADFYCALSRVSGTYGTVFGGGTHLTVL | 6.4 | 24.3 | 37.5 | 0.33 | binds | binds | no binding (tested: about 130 nM) | – | – |
| 9A11 (antibody, human IgG1, V domains shown) VH: EVQLVQPGAEVRRPGAAVKVSCKASGFALISSYIDWVRQAPGQGLEWMGRIDPEDGGTSYAQKFQGRVTVTVDTATSTAYVELSSLRSDDTGVYFCMVGDSGYWGQGTQVTVSS VL: ATMLTQSPGSLSVVPGESASISCKASQSLVHTDGKTYLSWLLQKPGQSPQRLIYQVSTRGSGVPDRVTGSGSGTDFTLKISGVKAEDAGVYYCAQTTYYPPTFGQGTKVELK | 16 | 49.4 | 62.3 | 0.091 | – | – | no binding (tested: about 130 nM) | – | – |
| 9C12 (antibody, V domains shown, chimeric llama-human, human IgG1 constant domains) VH: EVQLVQPGAEVRRPGAAVKVSCKASGFALISSYIDWVRQAPGQGLEWMGRIDPEDGGTSYAQKFQGRVTVTVDTATSTVYVELSSLRSDDTGVYFCMVGDSGYWGQGTQVTVSS VL: ATMLTQSPASLSVVPGESASISCKASQSLVHSDGKTYLYWLLQKPGQSPQRLIYQVSNRGSGVPDRFTGSGSGTDFTLKISGVKAEDAGVYYCAQHTYYPPSFGSGTRLEIK | – | – | – | 0.22 | no binding (tested: about 66 nM) | binds | no binding (tested: about 130 nM) | – | – |
| 9C3 (antibody, V domains shown, chimeric llama-human, human IgG1 constant domains) VH: EVQLVQPGAELRNPGTSVKVSCKTSGYYFTSSDIQWVRQAPAQGLEWMGRIDPEDGATKYAPKFQGRVTFTADTFTRTAYVELSNLRSDDTAVYYCMTAGGEYWGKGTLVTVSS VL: QPVLNQPSALSVSLGQTARITCQGGDFRNYYNNWYQQKPGQAPVLVIYEDSERPSGIPERFSGSSSGDTVILTVSRVQADDEADYYCQSSDSTDNAVFGGGTHLTVL | 18.3 | 21.6 | 36.9 | 0.17 | binds | binds | no binding (tested: about 130 nM) | – | – |
| 9G6 (antibody, human IgG1, V domains shown) VH: EVQLVQPGAELTKPGASVKVSCNTSGYTFTGYYIDWVRQVPGEGLEWMGRIDPEDGDTKYAQKFQGRVTITADTSTTTAYMELSSLRSEDTAVYYCSLGVDYWGQGTQVTVSS VL: ATMLTQSPGSLSVVPGESASISCKTSQSLVHSDGKTYLYWLLQKPGQSPQRLIYQVSNRDSGVPDRFTGSGSGTDFTLKISGVKAEDAGVYYCAQTTYDPVTFGQGTKVELK | 11.8 | 22.8 | 37.5 | – | – | – | no binding (tested: about 130 nM) | binds | – |
| scFv A3 (scFv, part only; not given: GS linker, not shown: small tags and cut ends) scFv, part: QVQVQESGGGLVQPGGSLRLSCATSGFTFSNYYMSWVRQAPGKGPEWVSSIYSDLSTTYYADSVKGRFTISRDRAKNTLYLQMNSLKSEDTAVYYCARLSTVAGVDYWGKGTLVTVSSSYELTQSPSVSVALRQTAKITCGGNNIGSKSAQWYQQKPGQAPVLVIYADYRRPSGIPERFSGSNSGNTATLTISGAQAEDEADYYCQVWDSSANAAVFGGGTHLTVLG | – | – | – | – | – | – | – | – | 0.883 |
| scFv B1 (scFv, part only; not given: GS linker, not shown: small tags and cut ends) scFv, part: QVQVQESGGGLVQPGGSLRLSCATSGFTFSNYYMSWVRQAPGKGPEWVSSIYSDLSTTYYADSVKGRFTISRDRAKNTLYLQMNSLKSEDTAVYYCARLSTVAGVDYWGKGTLVTVSSSYELTQSPSVSVALRQTAKITCGGNNIGSKSAQWYQQKPGQAPVLVIYADYRRPSGIPERFSGSNSGNTATLTISGAQAEDEADYYCQVWDSSANAAVFGGGTHLTVLG | – | – | – | – | – | – | – | – | 0.749 |
| 9F10 (antibody, human IgG1, V domains shown) VH: EVQLVQPGAEVRRPGAAVKVSCKASGFALISSYIDWVRQAPGQGLEWMGRIDPEDGGTSYAQKFQGRVTVTVDTATSTVYVELSSLRSDDTGVYFCMVGDSGYWGQGTQVTVSS VL: ATMLTQSPGSLSVGPGESASISCKAGQSLTHPNGKTYLSWLLQKPGQSPRRLIYETSNRDPGVPDRFTGSGSGTDFTLRIVGVTVEDAGVYYCAQTTYFPIAFGQGTKVELK | – | – | – | 0.081 | no binding (tested: about 66 nM) | binds | no binding (tested: about 130 nM) | – | – |
